Test results taken from US20190389958A1, “ANTI-CXCR4 ANTIBODIES” (MSM Protein Technologies, Inc., priority 2017, published 2019).

Target: human CXCR4 (human) (UniProt P61073)
Assay: flow cytometry, IgG 10 µg/mL, CXCR4-expressing Ramos (RA1) cells

human CXCR4 (human), sequence (P61073 whole entry): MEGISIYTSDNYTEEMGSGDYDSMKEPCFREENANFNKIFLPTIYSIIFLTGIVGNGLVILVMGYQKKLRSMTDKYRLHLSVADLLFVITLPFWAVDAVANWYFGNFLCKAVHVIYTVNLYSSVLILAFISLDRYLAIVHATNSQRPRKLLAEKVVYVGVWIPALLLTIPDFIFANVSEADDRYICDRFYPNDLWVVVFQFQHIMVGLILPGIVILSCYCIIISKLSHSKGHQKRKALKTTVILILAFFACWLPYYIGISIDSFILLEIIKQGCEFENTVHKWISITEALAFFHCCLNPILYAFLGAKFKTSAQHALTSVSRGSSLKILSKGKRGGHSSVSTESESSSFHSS

MFI: 42
Substance: human isotypic IgG1 kappa control (Coger Sarl, Paris, France) (antibody)
